Reference: paper PMC8326426, “Resveratrol-induced Sirt1 phosphorylation by LKB1 mediates mitochondrial metabolism” (The Journal of Biological Chemistry, 2021)

T1: His-Sirt1 core domain, aa 234 to 510 (human, UniProt Q96EB6 234-510)
T1 construct: Sirt1, human, deacetylase core domain, aa 234 to 510; His-tagged Sirt1 was made by subcloning human Sirt1 cDNA into pET28a; also called His-tagged Sirt1 core domain; source: E. coli Rosetta (DE3), eluted
T1 sequence (looked up): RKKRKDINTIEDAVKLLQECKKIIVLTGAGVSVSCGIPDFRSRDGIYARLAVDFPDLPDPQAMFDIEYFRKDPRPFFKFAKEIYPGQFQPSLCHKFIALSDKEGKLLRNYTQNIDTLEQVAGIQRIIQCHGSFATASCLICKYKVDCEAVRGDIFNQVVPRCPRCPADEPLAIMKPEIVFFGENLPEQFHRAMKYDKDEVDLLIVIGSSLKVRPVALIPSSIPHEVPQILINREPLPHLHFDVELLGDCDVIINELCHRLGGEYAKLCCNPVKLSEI

T2: MBP-Sirt1 core domain, aa 234 to 510 (human, UniProt Q96EB6 234-510)
T2 construct: Sirt1, human, deacetylase core domain, aa 234 to 510; MBP-tagged Sirt1 was made by subcloning human Sirt1 cDNA into pMal-c2X; also called MBP-tagged core domain of Sirt1; source: E. coli, purified
T2 sequence (looked up): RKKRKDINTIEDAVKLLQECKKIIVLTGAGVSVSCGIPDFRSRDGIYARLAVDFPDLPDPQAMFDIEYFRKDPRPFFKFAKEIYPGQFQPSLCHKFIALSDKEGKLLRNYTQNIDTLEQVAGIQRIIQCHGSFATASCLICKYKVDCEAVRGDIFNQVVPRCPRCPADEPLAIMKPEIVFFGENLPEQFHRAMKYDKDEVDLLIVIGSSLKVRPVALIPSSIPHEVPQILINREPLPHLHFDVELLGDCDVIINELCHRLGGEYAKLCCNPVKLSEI

B1: C-terminal truncation of Sirt1, WT (eluted competitor), aa 511 to 747 (domain or fragment, human, UniProt Q96EB6 511-747, looked up)
chain: TEKPPRTQKELAYLSELPPTPLHVSEDSSSPERTSPPDSSVIVTLLDQAAKSNDDLDVSESKGCMEEKPQEVQTSRNVESIAEQMENPDLKNVGSSTGEKNERTSVAGTVRKCWPNRVAKEQISRRLDGNQYLFLPPNRYIFHGAEVYSDSEDDVLSSSSCGSNSDSGTCQSPSLEEPMEDESEIEEFYNGLEDEPDVPERAGGAGFGTDGDDQEAINEAISVKQEVTDMNYPSNKS
notes: Sirt1, human, C terminus, aa 511 to 747; the methods name GST- and His-tagged Sirt1 truncations from E. coli; also called the C terminus of Sirt1; WT C terminus; source: eluted
B2: C-terminal truncation of Sirt1, 3D mutant (eluted competitor), aa 511 to 747 (domain or fragment, human, UniProt Q96EB6 511-747, looked up)
chain: TEKPPRTQKELAYLSELPPTPLHVSEDSSSPERTSPPDSSVIVTLLDQAAKSNDDLDVSESKGCMEEKPQEVQTSRNVESIAEQMENPDLKNVGSSTGEKNERTDVAGTVRKCWPNRVAKEQISRRLDGNQYLFLPPNRYIFHGAEVYSDSEDDVLSSDSCGSNSDSGTCQSPSLEEPMEDESEIEEFYNGLEDEPDVPERAGGAGFGTDGDDQEAINEAIDVKQEVTDMNYPSNKS
notes: Sirt1, human, C terminus, aa 511 to 747, Ser615, Ser669 and Ser732 replaced by Asp; also called 3D C terminus; source: eluted
B3: GST-tagged LZ (leucine-zipper) domain of DBC1, aa 243 to 264 (domain or fragment, UniProt Q8N163 243-264, looked up)
chain: LQRRYRSLLVPSDFLSVHLSWL
notes: DBC1 (Deleted in Breast Cancer 1), leucine zipper, aa 243 to 264; also called GST-LZ; DBC1 LZ domain; source: E. coli, purified
B4: GST-Sirt1 WT (C terminus), aa 511 to 747 (domain or fragment, human, UniProt Q96EB6 511-747, looked up)
chain: TEKPPRTQKELAYLSELPPTPLHVSEDSSSPERTSPPDSSVIVTLLDQAAKSNDDLDVSESKGCMEEKPQEVQTSRNVESIAEQMENPDLKNVGSSTGEKNERTSVAGTVRKCWPNRVAKEQISRRLDGNQYLFLPPNRYIFHGAEVYSDSEDDVLSSSSCGSNSDSGTCQSPSLEEPMEDESEIEEFYNGLEDEPDVPERAGGAGFGTDGDDQEAINEAISVKQEVTDMNYPSNKS
notes: Sirt1, human, C terminus, aa 511 to 747; GST-tagged Sirt1 was made by subcloning human Sirt1 cDNA into pGEX-6p-1; also called GST-Sirt1-C; GST-tagged C terminus of Sirt1; source: E. coli Rosetta (DE3), purified (glutathione-Sepharose 4B, eluted with reduced glutathione)
B5: GST-Sirt1 3A mutant (C terminus), aa 511 to 747 (domain or fragment, human, UniProt Q96EB6 511-747, looked up)
chain: TEKPPRTQKELAYLSELPPTPLHVSEDSSSPERTSPPDSSVIVTLLDQAAKSNDDLDVSESKGCMEEKPQEVQTSRNVESIAEQMENPDLKNVGSSTGEKNERTAVAGTVRKCWPNRVAKEQISRRLDGNQYLFLPPNRYIFHGAEVYSDSEDDVLSSASCGSNSDSGTCQSPSLEEPMEDESEIEEFYNGLEDEPDVPERAGGAGFGTDGDDQEAINEAIAVKQEVTDMNYPSNKS
notes: Sirt1, human, C terminus, aa 511 to 747, Ser615, Ser669 and Ser732 replaced by Ala; source: E. coli Rosetta (DE3), purified (glutathione-Sepharose 4B, eluted with reduced glutathione)
B6: GST-Sirt1 3D mutant (C terminus), aa 511 to 747 (domain or fragment, human, UniProt Q96EB6 511-747, looked up)
chain: TEKPPRTQKELAYLSELPPTPLHVSEDSSSPERTSPPDSSVIVTLLDQAAKSNDDLDVSESKGCMEEKPQEVQTSRNVESIAEQMENPDLKNVGSSTGEKNERTDVAGTVRKCWPNRVAKEQISRRLDGNQYLFLPPNRYIFHGAEVYSDSEDDVLSSDSCGSNSDSGTCQSPSLEEPMEDESEIEEFYNGLEDEPDVPERAGGAGFGTDGDDQEAINEAIDVKQEVTDMNYPSNKS
notes: Sirt1, human, C terminus, aa 511 to 747, Ser615, Ser669 and Ser732 replaced by Asp; source: E. coli Rosetta (DE3), purified (glutathione-Sepharose 4B, eluted with reduced glutathione)

Biological target: T1, His-Sirt1 core domain, aa 234 to 510
Assay: pull-down; competitive binding: 2 ug GST-LZ of DBC1 from E. coli, 2 ug eluted His-Sirt1 core domain, with or without 2 ug eluted C-terminal truncation of Sirt1 (WT or mutants), 4 h; bound fraction immunoblotted
Details: both partners purified

Row | Binder | binding result
1 | B1 | binds
2 | B2 | binds
3 | B3 | binds

Biological target: T2, MBP-Sirt1 core domain, aa 234 to 510
Assay: pull-down; MBP pull-down: MBP-Sirt1 core domain purified from E. coli incubated with eluted GST-Sirt1 C terminus (WT, 3A or 3D); bound fraction immunoblotted
Details: both partners purified

Row | Binder | binding result
4 | B4 | binds
5 | B5 | binds
6 | B6 | binds
